Substrate in the data set: CN(CCCC(C[C@@H]1O[C@H](C(=O)O)[C@@H](O)[C@H](O)[C@H]1O)c1cccnc1)N=O
Nature of the data set: TP_TRANSPORTER: uptake, in the presence of GSH in membrane vesicle from MRP1-expressing T5 HeLa cell. The data set is classed as functional, cell membranes.

B1: Multidrug resistance-associated protein 1 (Homo sapiens) (protein)
chain: MALRGFCSADGSDPLWDWNVTWNTSNPDFTKCFQNTVLVWVPCFYLWACFPFYFLYLSRHDRGYIQMTPLNKTKTALGFLLWIVCWADLFYSFWERSRGIFLAPVFLVSPTLLGITMLLATFLIQLERRKGVQSSGIMLTFWLVALVCALAILRSKIMTALKEDAQVDLFRDITFYVYFSLLLIQLVLSCFSDRSPLFSETIHDPNPCPESSASFLSRITFWWITGLIVRGYRQPLEGSDLWSLNKEDTSEQVVPVLVKNWKKECAKTRKQPVKVVYSSKDPAQPKESSKVDANEEVEALIVKSPQKEWNPSLFKVLYKTFGPYFLMSFFFKAIHDLMMFSGPQILKLLIKFVNDTKAPDWQGYFYTVLLFVTACLQTLVLHQYFHICFVSGMRIKTAVIGAVYRKALVITNSARKSSTVGEIVNLMSVDAQRFMDLATYINMIWSAPLQVILALYLLWLNLGPSVLAGVAVMVLMVPVNAVMAMKTKTYQVAHMKSKDNRIKLMNEILNGIKVLKLYAWELAFKDKVLAIRQEELKVLKKSAYLSAVGTFTWVCTPFLVALCTFAVYVTIDENNILDAQTAFVSLALFNILRFPLNILPMVISSIVQASVSLKRLRIFLSHEELEPDSIERRPVKDGGGTNSITVRNATFTWARSDPPTLNGITFSIPEGALVAVVGQVGCGKSSLLSALLAEMDKVEGHVAIKGSVAYVPQQAWIQNDSLRENILFGCQLEEPYYRSVIQACALLPDLEILPSGDRTEIGEKGVNLSGGQKQRVSLARAVYSNADIYLFDDPLSAVDAHVGKHIFENVIGPKGMLKNKTRILVTHSMSYLPQVDVIIVMSGGKISEMGSYQELLARDGAFAEFLRTYASTEQEQDAEENGVTGVSGPGKEAKQMENGMLVTDSAGKQLQRQLSSSSSYSGDISRHHNSTAELQKAEAKKEETWKLMEADKAQTGQVKLSVYWDYMKAIGLFISFLSIFLFMCNHVSALASNYWLSLWTDDPIVNGTQEHTKVRLSVYGALGISQGIAVFGYSMAVSIGGILASRCLHVDLLHSILRSPMSFFERTPSGNLVNRFSKELDTVDSMIPEVIKMFMGSLFNVIGACIVILLATPIAAIIIPPLGLIYFFVQRFYVASSRQLKRLESVSRSPVYSHFNETLLGVSVIRAFEEQERFIHQSDLKVDENQKAYYPSIVANRWLAVRLECVGNCIVLFAALFAVISRHSLSAGLVGLSVSYSLQVTTYLNWLVRMSSEMETNIVAVERLKEYSETEKEAPWQIQETAPPSSWPQVGRVEFRNYCLRYREDLDFVLRHINVTINGGEKVGIVGRTGAGKSSLTLGLFRINESAEGEIIIDGINIAKIGLHDLRFKITIIPQDPVLFSGSLRMNLDPFSQYSDEEVWTSLELAHLKDFVSALPDKLDHECAEGGENLSVGQRQLVCLARALLRKTKILVLDEATAAVDLETDDLIQSTIRTQFEDCTVLTIAHRLNTIMDYTRVIVLDKGEIQEYGAPSDLLQQRGLFYSMAKDAGLV
With B1, the Km (commonly the concentration of substrate that gives half-maximal velocity) stood at 39 µM.

The values are drawn from ChEMBL document CHEMBL2073804, “Transport of the beta -O-glucuronide conjugate of the tobacco-specific carcinogen 4-(methylnitrosamino)-1-(3-pyridyl)-1-butanol (NNAL) by the multidrug resistance protein 1 (MRP1). Requirement for glutathione or a non-sulfur-containing analog” (J Biol Chem, 2001).
